The target in series [1] is T1, O‐Mad2^R133A (Homo sapiens, UniProt Q13257, R133A).
T1 construct: unable to collect equivalent data for full‐length O‐Mad2^R133A; His6-DoubleStrep-TEV (N); made in house
Description: Time-resolved NMR: O-Mad2 to C-Mad2 conversion of O-Mad2^R133A with MIM peptides. Format: biochemical. Conditions: 100 μM O-Mad2^R133A, 25°C. How it is done:
FIGURE 2 NMR fingerprinting of Mad2. (a) Structural orientations of Trp75 (on the αB helix) and Trp167 (on the “safety‐belt”) in Mad2 produce distinct indole NH resonances. […] NMR spectra for O‐Mad2^R133A and “empty” C‐Mad2^L13A/R133A and C‐Mad2^R133A:Cdc20^MIM‐111‐138 are from Fischer et al. ([2022]) (c) Mad2 conversion rates vary with different MIM peptides. Conversion was traced over 24 h at 25°C using the Trp75 and Trp167 side‐chain resonances as reporters. MIM peptides were added at two‐fold molar excess to Mad2 (100 μM). Each spectrum required 12 min of acquisition time, therefore the 15 min time‐points represent the earliest spectra in the time‐resolved series. The schematics show the conformation of Mad2 as indicated by the tryptophan side‐chain resonances. A black tick marks when conversion is considered complete. NMR data for O‐Mad2^R133A with and without Cdc20^MIM‐111‐138 shown are from Fischer et al. ([2022]). In the case of full‐length Cdc20, the MIM sequence is sequestered by an auto‐inhibitory intramolecular interaction within Cdc20 itself, which prevents it from being readily accessible for binding to C‐Mad2 (Piano et al., [2021]). Conversely, isolated MIM peptides lack this auto‐inhibitory mechanism, allowing them to bind directly to C‐Mad2 without obstruction.
To understand whether Mad2 conversion times are modulated by different C‐Mad2 ligands, we used time‐resolved NMR to determine the conversion time of 100 μM O‐Mad2^R133A at 25°C. The indole NH resonances of Trp75 and Trp167 were used as reporters (Figure 2b). […] In contrast, conversion took ~24 h in the absence of Cdc20^MIM‐111‐138 peptide (Fischer et al., [2022]) (Figures 2c and S4b). […] Other MIM peptides also accelerated the O‐Mad2 to C‐Mad2 conversion. […] In “empty” C‐Mad2, the β7/β8 hairpin is displaced to expose the β6 strand for pairing with the MIM peptide (Luo et al., [2004]) (Figure S3a).
Mad2 constructs were expressed in BL21 Star (DE3) cells (Thermo Fisher Scientific), co‐transformed with a pRARE plasmid (Merck). Uniformly labeled proteins were expressed in M9 minimal media (6 g/L Na2HPO4, 3 g/L KH2PO4, 0.5 g/L NaCl) supplemented with 1.7 g/L yeast nitrogen base without NH4Cl and amino acids (Sigma Y1251). 1 g/L ^15NH4Cl and 4 g/L glucose were supplemented for ^15N labeling. For ^13C/^15N double‐labeled samples, unlabeled glucose was replaced with 3 g/L ^13C‐glucose. Protein expression was induced with 0.4 mM IPTG at 16°C overnight. All samples were purified as previously described (Luo & Yu, [2005]; Mapelli et al., [2007]) and all O‐Mad2 variants were kept at 4°C during purification to prevent conversion to C‐Mad2. Prior to all NMR experiments, proteins were dialyzed into 20 mM HEPES, pH 7.0, 100 mM NaCl, 1 mM TCEP. ^13C/^15N‐labeled samples were used for backbone assignment, and all other experimental data were acquired on ^15N‐labeled samples. Proteins were kept on ice before NMR experiments to ensure all O‐Mad2 remained in the open state. For “bound” C‐Mad2, MIM peptides were added in 1:2 molar excess to ensure complete conversion.
All peptides were synthesized by Cambridge Research Biochemicals, UK. Peptides were dialyzed into 20 mM HEPES, pH 7.0, 100 mM NaCl, and 1 mM TCEP for NMR experiments. The sequences for the peptides used in this study are: Cdc20^MIM‐111‐138 ([…]), Cdc20^MIM‐123‐137 (FDVEEAKILRLSGKP), Cdc20^MIM‐123‐152 ([…]), Cdc20^MIM‐138‐152 (QNAPEGYQNRLKVLY), Mad1^MIM‐529‐550 ([…]), and MBP1^MIM (SWYSYPPPQRAV). […]

Series [2] concerns O‐Mad2. Conditions: NMR; ref Luo et al., [2004]; cited from earlier work. How it is done:
To understand whether Mad2 conversion times are modulated by different C‐Mad2 ligands, we used time‐resolved NMR to determine the conversion time of 100 μM O‐Mad2^R133A at 25°C. The indole NH resonances of Trp75 and Trp167 were used as reporters (Figure 2b). […] In contrast, conversion took ~24 h in the absence of Cdc20^MIM‐111‐138 peptide (Fischer et al., [2022]) (Figures 2c and ...

For series [3] the following is noted: cited from earlier work. How it is done: In contrast, conversion took ~24 h in the absence of Cdc20^MIM‐111‐138 peptide (Fischer et al., [2022]) (Figures 2c and ...
For series [4] the following is noted: experimentally determined; ref Zhao et al., [2016]; cited from earlier work.
For series [5], the system named is C‐Mad2. Conditions: phage-display selected MIM peptide; ref Luo et al., [2002]; cited from earlier work.
Series [6] concerns Mad2^∆β7/β8. Conditions: ref Yang et al., [2008]; cited from earlier work. From the text: We reasoned that MIM binding to Mad2 is blocked until the β7/β8 hairpin is displaced (Figure 3c,d). To test this hypothesis, we generated a Mad2 variant with a deleted β7/β8 hairpin (Mad2^∆β7/β8: residues 1–165) (Figure 3e). Mad2^∆β7/β8 adopted a stable globular fold, and due to the absence of the C‐terminal residues, it was unable to adopt a closed conformation (Figure 3f). […] This is in agreement with a previous study that showe ...

In series [7] the target is T2, human wild-type Mad2 (human, UniProt Q13257 1-205).
T2 construct: Mad2, human, wild type; limits follow from Mad2^Δβ7/β8 (residues 1-165), made from this construct by deleting residues 166-205; Tag is followed by a TEV site; 15N-labelled for NMR; Expressed and kept cold as the open state (O-Mad2); Construct described in Fischer et al. 2022; also called Mad2^WT; O-Mad2^WT; source: E. coli BL21 Star (DE3) with pRARE, purified
Description: SEC; excess of Mad1^MIM peptide added to O-Mad2^WT, complex purified by size-exclusion chromatography. Conditions: both partners purified.

Series [8] concerns the target T3, Mad2^R133A (human, UniProt Q13257 1-205, R133A).
T3 construct: Mad2, human, full-length, R133A; Tag is followed by a TEV site; 15N-labelled for NMR; Starts in the open state; also called O-Mad2^R133A; C-Mad2^R133A; source: E. coli BL21 Star (DE3) with pRARE, purified
Description: time-resolved NMR (series of 2D 1H,15N HSQC spectra); 100 μM 15N Mad2 variant, MIM peptide at two-fold molar excess, 25°C, 20 mM HEPES pH 7.0, 100 mM NaCl, 1 mM TCEP, 5% D2O; Trp75 and Trp167 indole NH resonances as reporters of the ligand-bound closed state; 12 min per spectrum, up to 24 h. Conditions: both partners purified.

The target in series [9] is T4, Mad2^LL/R133A (human, UniProt Q13257 1-205, residues 109–117 (TAKDDSAPR) with GSG | R133A).
T4 construct: Mad2, human; Mad2^LL construct (residues 109-117 replaced by GSG) with Ala for Arg133; numbers count on wild-type Mad2; Tag is followed by a TEV site; also called O-Mad2^LL/R133A; source: E. coli BL21 Star (DE3) with pRARE, purified
Description: time-resolved NMR (series of 1H,15N SOFAST-HMQC spectra, residue conversion rates); 200 μM Mad2 variant, 950 MHz, 25°C, 500 spectra of 5 min over 42 h; disappearance of O-Mad2 and appearance of C-Mad2:Cdc20^MIM backbone resonances. Conditions: both partners purified.

The target in series [10] is T5, Mad2^L13A/R133A (human, UniProt Q13257 1-205, L13A | R133A).
T5 construct: Mad2, human, full-length, L13A and R133A; made from the Mad2^R133A mutant; Adopts the closed state without ligand; Tag is followed by a TEV site; also called “empty” C-Mad2; C-Mad2^L13A/R133A; source: E. coli BL21 Star (DE3) with pRARE, purified
Description: time-resolved NMR (series of 2D 1H,15N HSQC spectra); 100 μM 15N Mad2 variant, MIM peptide at two-fold molar excess, 25°C, 20 mM HEPES pH 7.0, 100 mM NaCl, 1 mM TCEP, 5% D2O; Trp75 and Trp167 indole NH resonances as reporters of the ligand-bound closed state; 12 min per spectrum, up to 24 h. Conditions: both partners purified.

Series [11] deals with T6, Mad2^LL (human, UniProt Q13257 1-205, residues 109–117 (TAKDDSAPR) with GSG).
T6 construct: Mad2, human; wild-type construct with residues 109-117 of the β5-αC loop replaced by GSG; Tag is followed by a TEV site; also called loop-less Mad2 mutant; O-Mad2^LL; source: E. coli BL21 Star (DE3) with pRARE, purified
The description is as above. Conditions: both partners purified.

T3 sequence (Q13257 whole entry R133A): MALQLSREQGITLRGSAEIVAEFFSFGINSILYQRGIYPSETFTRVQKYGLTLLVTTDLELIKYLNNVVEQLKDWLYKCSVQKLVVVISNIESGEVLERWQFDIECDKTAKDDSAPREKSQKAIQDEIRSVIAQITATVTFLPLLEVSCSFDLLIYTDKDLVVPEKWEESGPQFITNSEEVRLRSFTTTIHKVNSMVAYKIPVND
T1 sequence (Q13257 whole entry R133A): as above
T6 sequence (Q13257 other isoform, or with tags, fused parts or gaps with the stated changes): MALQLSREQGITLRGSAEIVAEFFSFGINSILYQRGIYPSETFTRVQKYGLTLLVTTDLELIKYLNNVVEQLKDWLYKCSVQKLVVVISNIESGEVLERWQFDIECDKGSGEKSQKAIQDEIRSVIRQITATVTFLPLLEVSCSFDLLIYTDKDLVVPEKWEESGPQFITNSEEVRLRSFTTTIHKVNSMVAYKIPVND
T4 sequence (Q13257 other isoform, or with tags, fused parts or gaps with the stated changes): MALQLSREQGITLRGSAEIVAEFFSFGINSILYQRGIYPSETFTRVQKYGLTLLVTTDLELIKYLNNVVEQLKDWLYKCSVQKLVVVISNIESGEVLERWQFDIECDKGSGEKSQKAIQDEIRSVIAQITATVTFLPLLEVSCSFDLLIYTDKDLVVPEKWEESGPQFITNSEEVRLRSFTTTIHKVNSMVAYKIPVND
T5 sequence (Q13257 whole entry L13A/R133A): as the sequence (Q13257 whole entry R133A) above, with L13A counted along it
T2 sequence (Q13257 whole entry, the tested form may be a part): as the sequence (Q13257 whole entry R133A) above, with A133R counted along it

Regarding “FDVEEAKILRLSGKP [Cdc20^MIM‐123‐137, Cdc20^MIM spanning residues 123–137]”, the “Mad2 conversion rate/efficiency, in words” value in series [1] (time-resolved NMR, compared with other Cdc20^MIM peptides) was “triggered Mad2 conversion at a similar rate as Cdc20^MIM‐111‐138”. For “Mad1 residues 540–551: Mad1 residues 540–551, earlier NMR study (Luo et al., [2004]) (TKVLHMSLNPTS; UniProt Q9Y6D9 540-551, looked up, fragment)”, in series [2], the “effect on O-Mad2 to C-Mad2 conversion, in words” value is listed as “facilitate this conversion”. As to O‐Mad2: Mad2 in the open inactive state, in [3] (in solution, ref Faesen et al., [2017], Lad et al., [2009], Luo et al., [2004], Simonetta et al.), the “t1/2 of intrinsic O-Mad2 to C-Mad2 conversion, in words” value was “multiple hours”. In addition, in series [4], the melting temperature was 69 °C. For “O‐Mad2^R133A: dimerization‐deficient mutant Mad2^R133A in its open state”, the “spontaneous conversion time to "empty" C-Mad2” value in [3] (100 μM, 25°C, absence of Cdc20^MIM-111-138 peptide, ref Fischer et al., [2022]) is listed as ~ 24 h. As to SWYSYPPPQRAV [MBP1^MIM], the “C-Mad2 affinity, in words” value in [5] is on record as “enhanced C‐Mad2 affinity”. The “interaction with Mad2^∆β7/β8, in words” value in series [6] is “weak interaction”. For the same molecule, the “time to complete Mad2 conversion” value in series [1] (two-fold molar excess peptide, 20 mM HEPES pH 7.0, 100 mM NaCl, 1 mM TCEP, 5% D2O, Trp75/Trp167 indole NH reporters, 12 min per spectrum) was ≤ 60 min.

B1: Mad1^MIM-529-550 (peptide)
peptide: RALQGDYDQSRTKVLHMSLNPT
notes: source: synthetic peptide (Cambridge Research Biochemicals)
Take B1: the binding result in [7] and in series [8] was “binds” throughout.

B2: Cdc20^MIM-123-137 (peptide)
peptide: FDVEEAKILRLSGKP
notes: as for B1
Regarding B2, in [8], the binding result was “binds”.

B3: MBP1^MIM (peptide)
peptide: SWYSYPPPQRAV
notes: as for B1
Turning to B3, the binding result in series [8] was “binds”.

B4: Cdc20^MIM-123-152 (peptide)
peptide: FDVEEAKILRLSGKPQNAPEGYQNRLKVLY
notes: also called MIM peptide; source: synthetic peptide (Cambridge Research Biochemicals)
Take B4: the binding result in [9] and in series [8] was “binds” in each case.

B5: Cdc20^MIM-111-138 (peptide)
peptide: EHQKAWALNLNGFDVEEAKILRLSGKPQ
notes: as for B1
Regarding B5, the binding result in [10] and in [11] was “binds” each time.
